From PMC10371074, “Allosteric control of dynamin-related protein 1-catalyzed mitochondrial fission through a conserved disordered C-terminal Short Linear Motif” (Research Square, 2023)
Where “and” joins values, the source holds several entries; their conditions need not be identical. Equal values may be shown once.

B1: mouse GIPC-1 (GAIP interacting protein, C-terminus 1), full length (natural protein, UniProt Q9Z0G0 1-333, looked up)
chain: MPLGLGRRKKAPPLVENEEAEPSRSGLGVGEPGPLGGSAAGESQMGLPPPPAALRPRLVFHTQLAHGSPTGRIEGFTNVKELYGKIAEAFRLPAAEVMFCTLNTHKVDMDKLLGGQIGLEDFIFAHVKGQRKEVEVFKSEEALGLTITDNGAGYAFIKRIKEGSVIDHIQLISVGDMIEAINGQSLLGCRHYEVARLLKELPRGRTFTLKLTEPRKAFDMISQRSAGGHPGSGPQLGTGRGTLRLRSRGPATVEDLPSAFEEKAIEKVDDLLESYMGIRDTELAATMVELGKDKRNPDELAEALDERLGDFAFPDEFVFDVWGAIGDAKVGRY
notes: N-terminal IDR, GH1, PDZ and GH2 domains; GST removed after purification by HRV3C proteolysis; also called full-length GIPC-1; source: subcloned in pGEX-6P1, expressed and purified using standard protocols; aggregates removed by centrifugation and/or gel filtration; not shown: GST, N-terminal, cleaved
B2: human dynamin-related protein 1 (Drp1) isoform 3, wild type, N-terminally His6-tagged (enzyme, UniProt O00429-4 1-699, looked up)
chain: MEALIPVINKLQDVFNTVGADIIQLPQIVVVGTQSSGKSSVLESLVGRDLLPRGTGIVTRRPLILQLVHVSQEDKRKTTGEENGVEAEEWGKFLHTKNKLYTDFDEIRQEIENETERISGNNKGVSPEPIHLKIFSPNVVNLTLVDLPGMTKVPVGDQPKDIELQIRELILRFISNPNSIILAVTAANTDMATSEALKISREVDPDGRRTLAVITKLDLMDAGTDAMDVLMGRVIPVKLGIIGVVNRSQLDINNKKSVTDSIRDEYAFLQKKYPSLANRNGTKYLARTLNRLLMHHIRDCLPELKTRINVLAAQYQSLLNSYGEPVDDKSATLLQLITKFATEYCNTIEGTAKYIETSELCGGARICYIFHETFGRTLESVDPLGGLNTIDILTAIRNATGPRPALFVPEVSFELLVKRQIKRLEEPSLRCVELVHEEMQRIIQHCSNYSTQELLRFPKLHDAIVEVVTCLLRKRLPVTNEMVHNLVAIELAYINTKHPDFADACGLMNNNIEEQRRNRLARELPSAVSRDKVASGGGGVGDGVQEPTTGNWRGMLKTSKAEELLAEEKSKPIPIMPASPQKGHAVNLLDVPVPVARKLSAREQRDCEVIERLIKSYFLIVRKNIQDSVPKAVMHFLVNHVKDTLQSELVGQLYKSSLLDDLLTESEDMAQRRKEAADMLKALQGASQIIAEIRETHLW
notes: Dynamin-related protein 1 (Drp1), human, isoform 3, 699 aa residues; the last six residues R694-W699 (RETHLW) are the CT-SLiM; also called WT Drp1; WT; not shown: His6 (36 aa-residue N-terminal tag), N-terminal, kept
B3: human Drp1 (isoform 3) ΔCT4, last four residues of the CT-SLiM removed (enzyme, UniProt O00429-4 1-695, looked up)
chain: MEALIPVINKLQDVFNTVGADIIQLPQIVVVGTQSSGKSSVLESLVGRDLLPRGTGIVTRRPLILQLVHVSQEDKRKTTGEENGVEAEEWGKFLHTKNKLYTDFDEIRQEIENETERISGNNKGVSPEPIHLKIFSPNVVNLTLVDLPGMTKVPVGDQPKDIELQIRELILRFISNPNSIILAVTAANTDMATSEALKISREVDPDGRRTLAVITKLDLMDAGTDAMDVLMGRVIPVKLGIIGVVNRSQLDINNKKSVTDSIRDEYAFLQKKYPSLANRNGTKYLARTLNRLLMHHIRDCLPELKTRINVLAAQYQSLLNSYGEPVDDKSATLLQLITKFATEYCNTIEGTAKYIETSELCGGARICYIFHETFGRTLESVDPLGGLNTIDILTAIRNATGPRPALFVPEVSFELLVKRQIKRLEEPSLRCVELVHEEMQRIIQHCSNYSTQELLRFPKLHDAIVEVVTCLLRKRLPVTNEMVHNLVAIELAYINTKHPDFADACGLMNNNIEEQRRNRLARELPSAVSRDKVASGGGGVGDGVQEPTTGNWRGMLKTSKAEELLAEEKSKPIPIMPASPQKGHAVNLLDVPVPVARKLSAREQRDCEVIERLIKSYFLIVRKNIQDSVPKAVMHFLVNHVKDTLQSELVGQLYKSSLLDDLLTESEDMAQRRKEAADMLKALQGASQIIAEIRE
notes: Dynamin-related protein 1 (Drp1), human, isoform 3 (699 aa residues), with the last four residues removed; also called ΔCT4 Drp1; ΔCT4/6
B4: human Drp1 (isoform 3) ΔCT6, last six residues (whole CT-SLiM) removed (enzyme, UniProt O00429-4 1-693, looked up)
chain: MEALIPVINKLQDVFNTVGADIIQLPQIVVVGTQSSGKSSVLESLVGRDLLPRGTGIVTRRPLILQLVHVSQEDKRKTTGEENGVEAEEWGKFLHTKNKLYTDFDEIRQEIENETERISGNNKGVSPEPIHLKIFSPNVVNLTLVDLPGMTKVPVGDQPKDIELQIRELILRFISNPNSIILAVTAANTDMATSEALKISREVDPDGRRTLAVITKLDLMDAGTDAMDVLMGRVIPVKLGIIGVVNRSQLDINNKKSVTDSIRDEYAFLQKKYPSLANRNGTKYLARTLNRLLMHHIRDCLPELKTRINVLAAQYQSLLNSYGEPVDDKSATLLQLITKFATEYCNTIEGTAKYIETSELCGGARICYIFHETFGRTLESVDPLGGLNTIDILTAIRNATGPRPALFVPEVSFELLVKRQIKRLEEPSLRCVELVHEEMQRIIQHCSNYSTQELLRFPKLHDAIVEVVTCLLRKRLPVTNEMVHNLVAIELAYINTKHPDFADACGLMNNNIEEQRRNRLARELPSAVSRDKVASGGGGVGDGVQEPTTGNWRGMLKTSKAEELLAEEKSKPIPIMPASPQKGHAVNLLDVPVPVARKLSAREQRDCEVIERLIKSYFLIVRKNIQDSVPKAVMHFLVNHVKDTLQSELVGQLYKSSLLDDLLTESEDMAQRRKEAADMLKALQGASQIIAEI
notes: Dynamin-related protein 1 (Drp1), human, isoform 3 (699 aa residues), with the last six residues R694-W699 removed; also called ΔCT6 Drp1; DCT6 Drp1

Columns and labels:
[1] = target: B4; test: negative-stain EM; 2-D class averages; apo Drp1 (2 uM) with GIPC-1 (8 uM), 1:4 molar ratio; conditions: both partners purified
[2] = target: the molecule itself; test: SEC-MALS; full-length GIPC-1, unliganded, 10 uM at injection; Superdex 200 10/300 GL column; dimer to monomers
[3] = target: B2; test: negative-stain EM; Drp1 (1.5 uM) pre-incubated with GIPC-1 (6 uM) for 15 min at room temperature, then CL-containing liposomes (50 uM total lipid) for 15 min; equimolar and 1:4 ratios; conditions: both partners purified
[4] = target: the molecule itself; test: negative-stain EM; 2-D class averages of single particles; Drp1 at 2 uM, apo state and with 1 mM GTP
[5] = target: the molecule itself; test: SEC-MALS; nucleotide-free apo state in solution; Superose 6 10/300 GL column; 5 uM protein at injection (Fig. 1E), other injection concentrations in Fig. S2C

Row | Binder | binding result [1] | stoichiometry N [2] | binding result [3] | stoichiometry N [4] | stoichiometry N [5]
1 | B1 | binds | 2 | binds |  | 
2 | B2 |  |  |  | 2 | 4
3 | B3 |  |  |  |  | 2 and 4
4 | B4 |  |  |  |  | 2 and 4
